Results published in US20240228586.

Biological target: M-L2-IL12 (masked mouse IL-12 whose linker contains 3 repeats of VPLSLYSG), Q60837
Sequence (Q60837 whole entry, looked up): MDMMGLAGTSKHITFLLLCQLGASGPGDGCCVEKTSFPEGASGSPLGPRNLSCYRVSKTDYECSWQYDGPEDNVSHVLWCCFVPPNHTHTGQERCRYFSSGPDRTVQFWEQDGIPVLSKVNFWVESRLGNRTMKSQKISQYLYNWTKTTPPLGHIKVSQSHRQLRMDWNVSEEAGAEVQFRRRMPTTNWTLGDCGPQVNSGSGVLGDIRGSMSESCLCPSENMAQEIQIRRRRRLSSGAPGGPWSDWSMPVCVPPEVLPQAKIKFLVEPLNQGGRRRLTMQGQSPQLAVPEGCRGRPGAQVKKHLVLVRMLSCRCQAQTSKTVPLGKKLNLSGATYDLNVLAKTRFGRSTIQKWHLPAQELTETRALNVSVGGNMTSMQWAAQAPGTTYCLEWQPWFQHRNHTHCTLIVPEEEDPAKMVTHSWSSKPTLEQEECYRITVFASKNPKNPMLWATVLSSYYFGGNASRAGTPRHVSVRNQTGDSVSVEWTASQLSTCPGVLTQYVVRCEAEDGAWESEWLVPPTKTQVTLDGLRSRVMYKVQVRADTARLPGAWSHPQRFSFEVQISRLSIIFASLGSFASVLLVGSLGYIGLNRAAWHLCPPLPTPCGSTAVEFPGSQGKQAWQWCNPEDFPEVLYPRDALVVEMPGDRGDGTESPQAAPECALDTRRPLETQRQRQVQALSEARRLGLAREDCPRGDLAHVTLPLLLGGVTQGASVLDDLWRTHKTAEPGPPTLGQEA

B1: recombinant mouse matrix metalloproteinase-9 (protein)
chain: FQTFKGLKWDHHNITYWIQNYSEDLPRDMIDDAFARAFAVWGEVAPLTFTRVYGPEADIVIQFGVAEHGDGYPFDGKDGLLAHAFPPGAGVQGDAHFDDDELWSLGKGVVIPTYYGNSNGAPCHFPFTFEGRSYSACTTDGRNDGTPWCSTTADYDKDGKFGFCPSERLYTEHGNGEGKPCVFPFIFEGRSYSACTTKGRSDGYRWCATTANYDQDKLYGFCPTRVDATVVGGNSAGELCVFPFVFLGKQYSSCTSDGRRDGRLWCATTSNFDTDKKWGFCPDQGYSLFLVAAHEFGHALGLDHSSVPEALMYPLYSYLEGFPLNKDDIDGIQYLYGRGSKPDPRPPATTTTEPQPTAPPTMCPTIPPTAYPTVGPTVGPTGAPSPGPTSSPSPGPTGAPSPGPTAPPTAGSSEASTESLSPADNPCNVDVFDAIAEIQGALHFFKDGWYWKFLNHRGSPLQGPFLTARTWPALPATLDSAFEDPQTKRVFFFSGRQMWVYTGKTVLGPRSLDKLGLGPEVTHVSGLLPRRLGKALLFSKGRVWRFDLKSQKVDPQSVIRVDKEFSGVPWNSHDIFQYQDKAYFCHGKFFWRVSFQNEVNKVDHEVNQVDDVGYVTYDLLQCP
- in vitro cleavage, 30 min at 37° C., SDS-PAGE: Decrease of molecular weight from ˜105 kDa to ˜60 kDa indicates proteolytic cleavage of IL12Rβ1-VP-IL12 and IL12Rβ1-LS-IL12
